Data reported in paper PMC4218952.

Target: Myc-GluK2a (UniProt Q13002)
Assay: co-IP; HEK293T cells transfected with FLAG-parkin and Myc-GluK2a or its truncation mutants; 500 ug lysate, Myc, parkin or FLAG antibody overnight at 4 C, Protein A or G agarose, washes with 500 mM NaCl, 1% Triton X-100; also after activation with 10 mM glutamate

Chain of UniProt Q13002 (Q13002 32-908): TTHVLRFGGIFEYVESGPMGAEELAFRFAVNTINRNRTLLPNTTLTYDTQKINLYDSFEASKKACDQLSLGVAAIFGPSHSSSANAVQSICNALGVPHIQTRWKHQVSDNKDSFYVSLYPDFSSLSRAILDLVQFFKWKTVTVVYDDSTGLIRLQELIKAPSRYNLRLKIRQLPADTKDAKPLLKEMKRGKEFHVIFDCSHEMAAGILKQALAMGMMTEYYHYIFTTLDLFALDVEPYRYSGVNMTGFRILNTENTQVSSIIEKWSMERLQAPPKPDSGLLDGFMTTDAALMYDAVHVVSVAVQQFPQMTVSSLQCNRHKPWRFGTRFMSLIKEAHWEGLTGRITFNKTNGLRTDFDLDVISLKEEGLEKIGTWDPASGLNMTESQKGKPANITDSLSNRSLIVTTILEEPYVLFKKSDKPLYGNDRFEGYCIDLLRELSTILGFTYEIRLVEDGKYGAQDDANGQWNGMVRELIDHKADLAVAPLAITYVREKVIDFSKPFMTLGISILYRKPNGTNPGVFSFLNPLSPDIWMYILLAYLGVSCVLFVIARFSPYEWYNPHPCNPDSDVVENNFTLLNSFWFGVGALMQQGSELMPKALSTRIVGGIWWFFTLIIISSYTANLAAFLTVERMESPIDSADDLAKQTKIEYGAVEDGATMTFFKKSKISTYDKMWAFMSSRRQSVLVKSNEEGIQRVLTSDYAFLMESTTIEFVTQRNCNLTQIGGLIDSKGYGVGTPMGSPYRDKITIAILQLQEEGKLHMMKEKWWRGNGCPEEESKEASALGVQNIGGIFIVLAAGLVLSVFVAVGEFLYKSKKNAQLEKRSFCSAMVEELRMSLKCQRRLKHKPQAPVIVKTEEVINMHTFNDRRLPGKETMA
Chain of FLAG-parkin (O60260 whole entry, the tested form may be a part): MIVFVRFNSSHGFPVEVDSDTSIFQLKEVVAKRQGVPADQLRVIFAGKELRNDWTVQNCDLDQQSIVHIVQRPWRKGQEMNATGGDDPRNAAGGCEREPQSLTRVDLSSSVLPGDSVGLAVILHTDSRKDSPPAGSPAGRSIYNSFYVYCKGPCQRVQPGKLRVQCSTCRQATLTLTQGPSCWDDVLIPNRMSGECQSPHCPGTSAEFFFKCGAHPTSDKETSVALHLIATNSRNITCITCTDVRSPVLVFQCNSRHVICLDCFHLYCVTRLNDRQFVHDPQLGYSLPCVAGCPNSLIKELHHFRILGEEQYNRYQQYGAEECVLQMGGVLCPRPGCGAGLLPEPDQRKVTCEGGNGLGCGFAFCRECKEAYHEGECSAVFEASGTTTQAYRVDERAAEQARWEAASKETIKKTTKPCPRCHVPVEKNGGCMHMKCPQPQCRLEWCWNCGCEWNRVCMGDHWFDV

co-immunoprecipitation after 10 mM glutamate, relative to untreated (fold of untreated): 2.7
Substance: FLAG-parkin (from UniProt O60260 1-465) (enzyme)
